One protein from paper PMC7142073, “Acclimation of bacterial cell state for high-throughput enzyme engineering using a DmpR-dependent transcriptional activation system” (Scientific Reports, 2020) can be followed below.

Substrate in this series: N[C@@H](Cc1ccc(O)cc1)C(=O)O
Kind of series: purified protein. The class given is biochemical, Symbiobacterium sp. SC-1. As to conditions: 50 mM potassium phosphate, 50 µM PLP; pH 8.0; 60.0 °C.

B1: thermostable TPL (TTPL) (Symbiobacterium sp. SC-1) (protein)
chain: MQRPWAEPYKIKAVEPIRMTTREYREQAIREAGYNTFLLRSEDVYIDLLTDSGTNAMSDRQWGALMMGDEAYAGARSFFRLEEAVREIYGFKYVVPTHQGRGAEHLISRILIKPGDYIPGNMYFTTTRTHQELQGGTFVDVIIDEAHDPQANHPFKGNVDIAKFEALIDRVGADKIPYINVALTVNMAGGQPVSMANLREVRKVCDRHGIRMWSDATRAVENAYFIKEREEGYQDKPVREILKEMMSYFDGCTMSGKKDCLVNIGGFLAMNEEWILQKAREQVVIFEGMPTYGGLAGRDMEAIAQGIYEMVDDDYIAHRIHQVRYLGEQLLEAGIPIVQPIGGHAVFLDARAFLPHIPQDQFPAQALAAALYVDSGVRAMERGIVSAGRNPQTGEHNYPKLELVRLTIPRRVYTDRHMDVVAYSVKHLWKERDTIRGLRMVYEPPTLRFFTARFEPIS
notes: His-tagged, pSHCE plasmid, expressed in E. coli DH5alpha with pGESS; cloning primer starts … (M-Q-R-P)
Consider B1, for which the Km is 270 ± 10 µM, the catalytic constant (kcat) was determined as 0.15 ± 0.01 s⁻¹ and the catalytic efficiency (kcat/Km) came out at 550 ± 10 M⁻¹ s⁻¹.

What is called Km is the substrate concentration at which the rate is half of its maximum. Usually kcat stands for the maximal rate divided by the concentration of active sites. What is called kcat/Km is the turnover number divided by the Michaelis constant.
